The values below come from patent publication US9163227B2, “Anti-diabetic compounds” (PFIZER INC., priority 2011, dated 2015).

This series in a line: Stability of linkers L1-L4 conjugated to FGF21 (LC-MS). The settings on record: linker conjugated to FGF21ΔH-A129C. It counts as physicochemical. As to the method: The following experiment was performed to investigate the chemical stability over 2 weeks of the four linkers upon conjugation to FGF21: each linker was conjugated to FGF21, placed at +4° C. storage conditions, and aliquots were removed and quenched by freezing at specific time points, and linker stability was monitored by LCMS analysis.
The four linkers were dissolved in DMSO from lyophilized stock material. […] L1 was reacted with protein for 30 mins; L2, L3 and L4 were reacted for 2 hrs. The conjugation reaction was quenched by removal of excess linkers through size-exclusion resin. Conjugated FGF21ΔH-A129C protein was placed at +4° C. for stability storage. […] Analysis of linker stability was performed by LC-MS analysis to determine the relative amount of unconjugated protein, protein+linker conjugation, and single and double hydrolysis events of the conjugated protein+linker.
Linker hydrolysis is the critical analytical variable in this experiment. Hydrolysis was monitored by observing the subsequent addition of H2O to the FGF21-linker complex. A single addition of H2O, +(1) H2O, likely indicates the hydrolysis of the active AZD group that is present on all 4 linkers. The addition of a second H2O molecule, +(2) H2O, is a strong indicator of hydrolysis (eg—chemical instability) in the linker. L1 is particularly susceptible because of the presence of a maleimide functional group.

The mark [1] stands for this setting: +4° C. storage, LC-MS, of total measured protein, 0 hrs.

In the case of `O=C(CCN1C(=O)C=CC1=O)NCCOCCOCCC(=O)Nc1ccc(CCC(=O)N2CCC2=O)cc1` [Compound L1, 3-(2,5-dioxo-2,5-dihydro-1H-pyrrol-1-yl)-N-(2-(2-(3-oxo-3-(4-(3-oxo-3-(2-oxoazetidin-1-yl)propyl)phenylamino)propoxy)ethoxy)ethyl)propanamide], the “0 linker (unconjugated protein)” value is 13% under setting [1]; 14% (+4° C., 24 hrs); 14% (+4° C., 72 hrs); 10% (+4° C., 168 hrs); 12% (+4° C., 336 hrs). The “1 linker (protein+linker conjugation)” value is, setting by setting: (+4° C., 0 hrs) 49%; (+4° C., 24 hrs) 41%; (+4° C., 72 hrs) 40%; (+4° C., 168 hrs) 33%; (+4° C., 336 hrs) 28%. The “+(1) H2O (single hydrolysis)” value came to 30% (+4° C., 0 hrs); 34% (+4° C., 24 hrs); 35% (+4° C., 72 hrs); 40% (+4° C., 168 hrs); 41% (+4° C., 336 hrs). The “+(2) H2O (double hydrolysis)” value runs as follows: (+4° C., 0 hrs) 8%; (+4° C., 24 hrs) 11%; (+4° C., 72 hrs) 11%; (+4° C., 168 hrs) 18%; (+4° C., 336 hrs (2 weeks)) 18%.

For `CC1=CC(=O)N(CCC(=O)NCCOCCOCCC(=O)Nc2ccc(CCC(=O)N3CCC3=O)cc2)C1=O` [Compound L2], the “0 linker (unconjugated protein)” value under setting [1] is listed as 22%; the “0 linker (unconjugated protein)” value (+4° C., 24 hrs) is reported as 23%; the “0 linker (unconjugated protein)” value (+4° C., 72 hrs) was found to be 24%; the “0 linker (unconjugated protein)” value (+4° C., 168 hrs) worked out at 24%; the “0 linker (unconjugated protein)” value (+4° C., 336 hrs) worked out at 26%. Also, the “1 linker (protein+linker conjugation)” value is reported as 45% (+4° C., 0 hrs); 43% (+4° C., 24 hrs); 37% (+4° C., 72 hrs); 40% (+4° C., 168 hrs); 38% (+4° C., 336 hrs). Also, the “+(1) H2O (single hydrolysis)” value is listed as 27% (+4° C., 0 hrs); 26% (+4° C., 24 hrs); 32% (+4° C., 72 hrs); 29% (+4° C., 168 hrs); 28% (+4° C., 336 hrs). Also, the “+(2) H2O (double hydrolysis)” value is on record as 6% (+4° C., 0 hrs); 8% (+4° C., 24 hrs); 8% (+4° C., 72 hrs); 7% (+4° C., 168 hrs); 8% (+4° C., 336 hrs (2 weeks)).

On to `CC1=CC(=O)N(CCOCCOCCC(=O)Nc2ccc(CCC(=O)N3CCC3=O)cc2)C1=O` [Compound L3], for which the “0 linker (unconjugated protein)” value under setting [1] was 19%; the “0 linker (unconjugated protein)” value (+4° C., 24 hrs) was found to be 18%; the “0 linker (unconjugated protein)” value (+4° C., 72 hrs) was 19%; the “0 linker (unconjugated protein)” value (+4° C., 168 hrs) stood at 19%; the “0 linker (unconjugated protein)” value (+4° C., 336 hrs) stood at 20%. Further, the “1 linker (protein+linker conjugation)” value is, setting by setting: (+4° C., 0 hrs) 45%; (+4° C., 24 hrs) 47%; (+4° C., 72 hrs) 43%; (+4° C., 168 hrs) 43%; (+4° C., 336 hrs) 43%. Moreover, the “+(1) H2O (single hydrolysis)” value was 30% (+4° C., 0 hrs); 27% (+4° C., 24 hrs); 30% (+4° C., 72 hrs); 29% (+4° C., 168 hrs); 29% (+4° C., 336 hrs). The “+(2) H2O (double hydrolysis)” value was 6% (+4° C., 0 hrs); 8% (+4° C., 24 hrs); 8% (+4° C., 72 hrs); 8% (+4° C., 168 hrs); 8% (+4° C., 336 hrs (2 weeks)).
